What was measured:
[1] = tested on: endothelial cells (HUVECs); experiment: Cell culture on microgels, HUVEC; assay type: cell-based, human; details: first 24 h of culture
Method: A 1.2×10^6 amount of cells suspended in 4 mL of complete cell culture media (300,000 cells/mL) was mixed with 200 μL of microgels by pipetting. The mix was seeded at […] in a 24-well low binding plate and kept at 37° C., 95% humidity, and 5% CO2 under rocker conditions at 30 rpm for 24 h. Then, cell-laden microgels were transferred into a tube by pipetting and spun down at 50 g for 5 min. The upper layer, containing cells not adherent to the microgels, was discarded. At this moment, cell-laden microgels were either resuspended with complete cell culture media to continue cell culture under rocker conditions or processed for staining.
The cell-laden microgels were fixed with 4% formaldehyde (v/v) in PBS and incubated for 30 min at 22° C. Later, formaldehyde was removed by centrifugation, and cell-laden microgels were washed twice with PBS in a similar way. Permeabilization buffer (6.3 mM MgCl2, 233.7 mM sucrose, 0.5% (v/v) Triton® X-100 in PBS) was kept at −20° C. and thawed just before use. […]
Proliferative cells were labeled by incubating cell-laden microgels with […] EdU in complete medium for 24 h in rocking culture at 30 rpm. […] EdU was detected following the manufacturer instructions by incubating cell-laden microgels with a Click-iT Plus reaction cocktail for 30 min at 22° C. protected from light. […]

[2] = pH of peptide solutions; assay type: physicochemical; details: for pH of the peptide solution: 5 mg/mL in Milli-Q water; for pH of the peptide solution after the addition of PBS: 5 mg/mL
Method: The preweighed (as per the required final concentration) peptide powder was dissolved in 0.9 mL of Milli-Q® water in a glass vial. The solution was vortexed for 5-10 s to obtain a clear and homogeneous solution. To this peptide solution, 0.1 mL of PBS buffer (10×, w/o Ca^2+ and Mg^2+) was added. To ensure a homogeneous distribution of buffer in the solution, the glass vial was further vortexed for 2-3 s. The glass vial was kept undisturbed on the bench, and hydrogel formation was observed using the vial inversion method, as shown in FIG. 9. The pH of the solutions of IVFK (SEQ ID NO. 1) and IVZK (SEQ ID NO. 2) was 5.57 and 5.48 at a 5 mg/mL concentration, respectively. After the addition of PBS, the pH changed to 7.7 and 7.6 for IVFK (SEQ ID NO. 1) and IVZK (SEQ ID NO. 2), respectively. The pH of the Milli-Q® water and phosphate buffer used was 6.7 and 7.4, respectively.

Ac-Ile-Val-Cha-Lys-NH2 (IVXK; HELM PEPTIDE1{[ac].I.V.[Cha].K.[am]}$$$$V2.0; SMILES CC[C@H](C)[C@H](NC(C)=O)C(=O)N[C@H](C(=O)N[C@@H](CC1CCCCC1)C(=O)N[C@@H](CCCCN)C(N)=O)C(C)C) [IVZK, self-assembling ultrashort tetrapeptide, Z = cyclohexylalanine, forms hydrogels and microgels]
HUVEC cell adhesion and morphology on microgels [1]: cell adhesion and stretched morphology | pH of the peptide solution [2]: 5.48 | pH of the peptide solution after the addition of PBS [2]: 7.6

Ac-Ile-Val-Phe-Lys-NH2 (Ac-IVFK-NH2) [self-assembling ultrashort tetrapeptide, forms hydrogels and microgels]
HUVEC cell adhesion and morphology on microgels [1]: cell adhesion and stretched morphology | pH of the peptide solution [2]: 5.57 | pH of the peptide solution after the addition of PBS [2]: 7.7

— patent publication US20230382948A1, “DELIVERY OF ENDOTHELIAL CELL-LADEN MICROGEL ELICITS ANGIOGENESIS IN SELF-ASSEMBLING ULTRASHORT PEPTIDE HYDROGELS” (KING ABDULLAH UNIVERSITY OF SCIENCE AND TECHNOLOGY, priority 2020, published 2023)
